Results published in PMC3691308.

Assays:
[1] = biological target: Leishmania braziliensis Hsp90 (LbHsp90) (Leishmania braziliensis)
[2] = biological target: Leishmania braziliensis Hsp90 (LbHsp90) (Leishmania braziliensis); test: ITC; LbAha1 (130–150 µM) injected into LbHsp90 (around 5.5 µM, as dimers); 40 mM HEPES pH 7.5, 5 mM KCl; 20°C; One Set of Sites fit; apparent enthalpy

- stimulation of LbHsp90 ATPase activity (1 µM dimer, 0.5 mM ATP, 37°C) by increasing LbAha1 (0–20 µM in the methods, 0–16 µM in the legend); relative ATPase activity [1]: 10 fold
- Kd [2]: 1000 nM
- dH [2]: -18 kcal/mol
- stoichiometry N (LbAha1 per LbHsp90 dimer) [2]: 2
Substance: Leishmania braziliensis Activator of Hsp90 ATPase 1 (LbAha1) (natural protein)
